One series in a line: FIGURE 31 (1/2). On the procedure:
Table printed on a drawing sheet, FIGURE 31 (1/2)
Peptide to internal standard peak area ratios were used calculate percentage remaining peptide at 60 minutes and 120 minutes. Peptides are identified by GPR number (GPR#) and SEQ ID NO.
First reader's note: First of two sheets of FIGURE 31; the table continues on sheet 2/2, and the meaning of the asterisks is not printed on this sheet.

A short description of another series: Ex-vivo plasma stability. The class given is in vitro ADME, mouse or rat. The protocol: Test article is added to fresh mouse or rat plasma at a final in-vial concentration of 1 μM. The peptide is incubated in a water bath at 37° C. over a time course that included the following points (in minutes): 0, 15, 30, 60, 120, 240, and 1440. After the incubation time is completed, a 50 μL aliquot of plasma is removed and proteins are precipitated using a solution containing internal standard (THR-123 at 150 ng/mL) in methanol with 0.5% acetic acid (v/v). The samples are centrifuged at 13,000 RPM for 5 minutes, and a 100 μL aliquot of supernatant is removed and transferred to a 96-well plate containing 200 μL of reconstitution solution (Water/MeOH/Acetic Acid/TFA, 60/40/0.2/0.05, v/v/v/v). A calibration curve and quality control (QC) samples are prepared in parallel in the same manner as the incubation samples. The calibration range for this assay is from 0.02 to 2.0 μM in rat or mouse plasma. The extracted calibrants, QC, and incubation samples are injected onto an AB SCIEX API 2000 LC-MS/MS system. Chromatographic separation is performed using a reversed-phase C18 HPLC column (Ace-3 C18, 30×2.1 mm, 3 μm). The solvent system consists of Milli-Q water, acetonitrile and formic acid. Analyte and internal standard are detected using the multiple reaction monitoring (MRM) scan mode. Calibration curves are generated by using a weighted (1/concentration) quadratic regression analysis of the peak area ratios (analyte/internal standard) versus the nominal concentration of the calibration standards. The concentration of the analyte in the incubation samples is determined by back-calculating the peak area ratios obtained using the quadratic regression.

The nature of series [1]: Pharmacokinetic studies of THR-123 and GPR-294 i.v. and s.c. (FIG. 13, FIGS. 5-8). It counts as in vivo. On the procedure:
A stock solution of THR-123 was prepared at 250 μg/mL in DMSO. This solution was quantitatively added to blank mouse plasma to generate a calibration curve. The linear range was from 0.25 to 250 ng/mL. A 175 μL aliquot of plasma from removed from each calibrant tube and processed using solid phase extraction (SPE). Study samples were first diluted with blank control mouse plasma, and 175 μL was aliquoted for processing using SPE. An internal standard working solution (ISWS) was added to each calibrant and study sample (GPR-227 at 100 ng/mL in water). Plasma proteins were precipitated with 175 μL of methanol with 0.5% acetic acid (v/v). After centrifugation at 14,800 RPM for 10 minutes, a 300 μL aliquot of supernatant was diluted in water with 4% phosphoric acid (v/v). The entire diluted sample was extracted by SPE using a Waters Oasis HLB 96-well μElution plate. Samples were washed twice using a solution of acidified water (0.1% TFA, v/v) and 15% MeOH in water (v/v). Purified extracts were eluted into a 96-well collection plate using 40 μL of elution solvent. Standards and study samples were injected onto a Thermo Q-exactive LC-MS/MS system. Chromatographic separation was performed using a reversed-phase C18 HPLC column (Waters CSH C18, 50×2.1 mm, 2.5 μm). Analyte and internal standard were detected using the targeted selected ion monitoring (tSIM) scan mode. Calibration curves were generated by using a weighted (1/concentration^2) linear regression of the peak area ratios (analyte/internal standard) versus the nominal concentration of the calibration standards. The concentration of the analyte in the study samples was determined by back-calculating the peak area ratios obtained using the linear regression and applying the appropriate dilution factors.
The study described herein involved single (mouse) or multiple (rat) blood collections after test article administration. Test articles are given by oral (PO), intravenous (IV), subcutaneous (SC) or intraperitoneal (IP) routes. All animals have a five day acclimatization period before dosing. Body weights are recorded prior to dosing. […]

Positions of bridges follow the written chain, without caps; N, C: chain ends. Non-standard residues stand in square brackets, D forms with d. Residues, ends and D or L forms follow the SMILES beside them. No end group written: not given here. *: point of attachment. Hydrocinnamoyl = O=C(CCc1ccccc1)*; Pyrazinecarbonyl = O=C(c1cnccn1)*; dNMeR = CN[C@H](CCCNC(=N)N)C(=O)O

As a reminder, the fraction remaining is the share of the starting amount still present when the sample was taken.

In the case of `CC(C)C[C@@H]1NC(=O)[C@H](C(C)C)NC(=O)[C@H](CC(N)=O)NC(=O)[C@H](CO)NC(=O)[C@H](CO)NC(=O)[C@H](CC(=O)O)NC(=O)[C@H](CC(=O)O)NC(=O)[C@H](Cc2ccccc2)NC(=O)[C@H](Cc2ccc(O)cc2)NC(=O)[C@@H](NC(=O)CCc2ccccc2)CSSC[C@@H](C(=O)N[C@@H](CCCCN)C(=O)N[C@@H](CCCCN)C(=O)N[C@H](Cc2ccc(O)cc2)C(=O)N[C@@H](CCCNC(=N)N)C(=O)N[C@@H](CO)C(=O)O)NC1=O` [SEQ ID NO:32, [N-terminal: Phenyl-CH2-CH2-CO-]Cys-Tyr-Phe-Asp-Asp-Ser-Ser-Asn-Val-Leu-Cys-Lys-Lys-(D)Tyr-Arg-Ser] (Hydrocinnamoyl-CYFDDSSNVLCKK[dY]RS-OH; disulfide 1-11), in “FIGURE 31 (1/2)”, the “% Remaining at 60 and 120 minutes | 60” value was determined as 82.0%; the “% Remaining at 60 and 120 minutes | 120” value was 91.0%.
On to “Cys-Tyr-Phe-Asp-Asp-Asn-Ser-Asn-Val-Leu-Cys-Arg-Lys-Tyr-(Me)(D)Arg-Ser (CYFDDNSNVLCRKY[dNMeR]S-OH; disulfide 1-11 (inferred)) [SEQ ID NO:38]”, for which, in the series “FIGURE 31 (1/2)”, the “% Remaining at 60 and 120 minutes | 60” value is listed as 90.4%; the “% Remaining at 60 and 120 minutes | 120” value is listed as 84.2%.
For “CYFDDSSNVKCKK[dA]RS (cysteine pairing not given here) [SEQ ID NO:28]”, in that order: 75.3% and 90.2%.
As to “[N-terminal: Pirazinyl-CO-]Cys-Tyr-Phe-Asp-Asp-Ser-Ser-Asn-Val-Leu-Cys-Lys-Lys-(D)Tyr-Arg-Ser (Pyrazinecarbonyl-CYFDDSSNVLCKK[dY]RS-OH; disulfide 1-11 (inferred)) [SEQ ID NO:34]”, in “FIGURE 31 (1/2)”, the “% Remaining at 60 and 120 minutes | 60” value was 66.2%; the “% Remaining at 60 and 120 minutes | 120” value is reported as 78.7%.
The matching figures for `CC(C)C[C@@H]1NC(=O)[C@H](C(C)C)NC(=O)[C@H](CC(N)=O)NC(=O)[C@H](CO)NC(=O)[C@H](CO)NC(=O)[C@H](CC(=O)O)NC(=O)[C@H](CC(=O)O)NC(=O)[C@H](Cc2ccccc2)NC(=O)[C@H](Cc2ccc(O)cc2)NC(=O)[C@@H](NC(=O)CCc2ccccc2)CSSC[C@@H](C(=O)N[C@@H](CCCCN)C(=O)N[C@@H](CCCCN)C(=O)N[C@@H](Cc2ccc(O)cc2)C(=O)N[C@@H](CCCNC(=N)N)C(=O)N[C@@H](CO)C(=O)O)NC1=O` [SEQ ID NO:31, [N-terminal: Phenyl-CH2-CH2-CO-]Cys-Tyr-Phe-Asp-Asp-Ser-Ser-Asn-Val-Leu-Cys-Lys-Lys-Tyr-Arg-Ser] (Hydrocinnamoyl-CYFDDSSNVLCKKYRS-OH; disulfide 1-11): 26.6% and 11.8%.
The matching figures for “Cys-Tyr-Phe-Nal-Asp-Ser-Ser-Asn-Val-Leu-Cys-Lys-Lys-(D)Tyr-Arg-Ser (CYF[Nal]DSSNVLCKK[dY]RS-OH; disulfide 1-11 (inferred)) [SEQ ID NO:48]”: 93.33% and 97.49%.
For “Cys-Tyr-Phe-Nal-Asp-Ser-Ser-Asn-Val-Leu-Cys-Lys-Lys-Tyr-Arg-Ser (CYF[Nal]DSSNVLCKKYRS-OH; disulfide 1-11 (inferred)) [SEQ ID NO:47]”, in that order: 9.0% and 8.2%.
As for “Cys-Tyr-Tyr-Phe-Ser-Ser-Ser-Phe-Val-Leu-Cys-Lys-Arg-Tyr-(Me)(D)Arg-Ser (CYYFSSSFVLCKRY[dNMeR]S-OH; disulfide 1-11 (inferred)) [SEQ ID NO:44]”, in “FIGURE 31 (1/2)”, the “% Remaining at 60 and 120 minutes | 60” value turned out to be 74.3%; the “% Remaining at 60 and 120 minutes | 120” value was 57.5%.
The matching figures for “Cys-Tyr-Phe-Asp-Asp-Ser-Ser-Asn-Thr-Leu-Cys-Lys-Lys-Tyr-(Me)(D)Arg-Ser (CYFDDSSNTLCKKY[dNMeR]S-OH; disulfide 1-11 (inferred)) [SEQ ID NO:40]”: 106.0% and 99.2%.
The matching figures for “[N-terminal: Pirazinyl-CO-]Cys-Tyr-Phe-Asp-Asp-Ser-Ser-Asn-Val-Leu-Cys-Lys-Lys-Tyr-Arg-Ser (Pyrazinecarbonyl-CYFDDSSNVLCKKYRS-OH; disulfide 1-11 (inferred)) [SEQ ID NO:33]”: 44.3% and 23.6%.
As for “Cys-Tyr-Phe-Asp-Asp-Ser-Ser-Asn-Ala-Leu-Cys-Lys-Lys-Tyr-(Me)(D)Arg-Ser (CYFDDSSNALCKKY[dNMeR]S-OH; disulfide 1-11 (inferred)) [SEQ ID NO:42]”, in “FIGURE 31 (1/2)”, the “% Remaining at 60 and 120 minutes | 60” value was 100.0%; the “% Remaining at 60 and 120 minutes | 120” value is reported as 94.0%.
In the case of `CC(C)C[C@@H]1NC(=O)[C@H](C(C)C)NC(=O)[C@H](CC(N)=O)NC(=O)[C@H](CO)NC(=O)[C@H](CO)NC(=O)[C@H](CC(=O)O)NC(=O)[C@H](CC(=O)O)NC(=O)[C@H](Cc2ccccc2)NC(=O)[C@H](Cc2ccc(O)cc2)NC(=O)[C@@H](N)CSSC[C@@H](C(=O)N[C@@H](CCCCN)C(=O)N[C@@H](CCCCN)C(=O)N[C@H](Cc2ccc(O)cc2)C(=O)N[C@@H](CCCNC(=N)N)C(=O)N[C@@H](CO)C(=O)O)NC1=O` [GPR-294, Cys-Tyr-Phe-Asp-Asp-Ser-Ser-Asn-Val-Leu-Cys-Lys-Lys-D-tyr-Arg-Ser] (H-CYFDDSSNVLCKK[dY]RS-OH; disulfide 1-11), the share remaining at 1 h in “Ex-vivo plasma stability” (fresh plasma 37° C., 1 μM, 60 min, read-out: Percent remaining 60 min) is 72.6%. In addition, in “Ex-vivo plasma stability” (fresh plasma 37° C., 1 μM, 120 min, read-out: Percent remaining 120 min), the amount remaining at 2 h worked out at 67.9%. In the series “Ex-vivo plasma stability” (versus THR-123, rat plasma (FIGS. 3 and 4)), the “stability toward plasma proteolytic cleavage” value is recorded as “enhanced”. Moreover, the “plasma half-life compared with THR-123” value in series [1] (by either route of administration (i.v., s.c.)) is given as “much longer plasma half-life than the non-stabilized THR-123”. The bioavailability in series [1] (in vivo, s.c. versus i.v., FIG. 13, read-out: bioavailable by sub-cutaneous administration) worked out at 100%.

The values above are taken from patent US20160137714A1 (Thrasos Innovation, Inc., priority 2014, published 2016).
